Data from patent publication US20240067748A1 (NONA BIOSCIENCES SUZHOU, published 2024).

What was measured:
[1] = biological target: T1, human TROP2 protein (Sino Biological, #10428-H08H) (human, UniProt P09758 27-274); experiment: BLI epitope binning (Octet), biotinylated human Trop2 on SA sensor; row = primary antibody; competitor (secondary antibody, column): PR001165
T1 construct: bought protein; also called human Trop2 protein antigen (His tag); not shown: His tag
T1 sequence (looked up): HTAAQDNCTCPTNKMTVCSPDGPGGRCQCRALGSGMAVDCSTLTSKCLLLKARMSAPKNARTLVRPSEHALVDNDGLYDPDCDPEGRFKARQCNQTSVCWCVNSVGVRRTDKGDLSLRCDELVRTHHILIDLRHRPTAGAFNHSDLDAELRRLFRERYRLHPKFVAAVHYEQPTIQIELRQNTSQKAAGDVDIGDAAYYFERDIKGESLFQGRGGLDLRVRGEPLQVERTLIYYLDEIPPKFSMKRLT
Protocol: (§1) The biotinylated mixture after the incubation was washed three times with PBS and a Zeba centrifugal desalting column (Thermo Fisher, #89882) to remove excess biotin. The biotinylated Trop2 protein was captured by an SA sensor (Pall ForteBio, #18-5019) with the loading baseline set at 0.3 nm. The sensor was immersed in a well of assay buffer containing 50 nM primary antibody for 300 s. […] The binding assay was performed by comparing the binding of the secondary antibody to Trop2 in the presence of the primary antibody to the blocking of the primary antibody itself.

human Trop2 on cells [2] = biological target: T2, human Trop2 on cells (human, UniProt P09758 27-323); experiment: cell-based or functional assay
T2 sequence (looked up): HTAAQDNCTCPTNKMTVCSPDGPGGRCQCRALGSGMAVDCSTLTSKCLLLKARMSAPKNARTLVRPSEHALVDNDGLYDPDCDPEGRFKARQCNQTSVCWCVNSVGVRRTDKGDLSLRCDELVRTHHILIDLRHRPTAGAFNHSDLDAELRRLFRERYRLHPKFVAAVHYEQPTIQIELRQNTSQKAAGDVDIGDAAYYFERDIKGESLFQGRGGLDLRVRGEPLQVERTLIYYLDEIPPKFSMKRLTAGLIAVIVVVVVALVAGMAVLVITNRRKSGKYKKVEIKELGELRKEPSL

[3] = biological target: T1, human TROP2 protein (Sino Biological, …); experiment: BLI epitope binning (Octet), biotinylated human Trop2 on SA sensor; row = primary antibody; competitor (secondary antibody, column): hRS7
Protocol: as §1

[4] = biological target: T3, monkey Trop2 protein (Sino Biological, #90893-C08H) (monkey, UniProt A0A2K5UE71 27-274); experiment: BLI, Octet RED96; ratio against KD for human Trop2 protein
T3 construct: bought protein; also called monkey Trop2 protein antigen (His tag)
T3 sequence: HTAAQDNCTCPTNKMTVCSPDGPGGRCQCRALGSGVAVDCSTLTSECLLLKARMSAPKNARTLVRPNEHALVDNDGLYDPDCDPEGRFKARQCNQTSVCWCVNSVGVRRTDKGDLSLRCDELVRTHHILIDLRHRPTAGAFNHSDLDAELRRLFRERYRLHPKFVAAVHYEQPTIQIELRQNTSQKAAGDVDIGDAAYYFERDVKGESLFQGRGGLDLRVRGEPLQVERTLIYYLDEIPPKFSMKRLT
Outline: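 First, 200 nM human or monkey Trop2 in PBS (pH 7.4, 0.1% BSA, 0.02% Tween 20) is captured on the sensor. Next, 40 nM antibody binds for 3 min at 30° C.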

[5] = biological target: T1, human TROP2 protein (Sino Biological, …); experiment: BLI epitope binning (Octet), biotinylated human Trop2 on SA sensor; row = primary antibody; competitor (secondary antibody, column): PR001142
Protocol: as §1

human Trop2 on cells [6] = biological target: T2, human Trop2 on cells; experiment: flow cytometry on 293T-human Trop2 cells
Outline: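 Cells at 1×10⁶/mL in PBS were incubated for 1 h, washed in PBS+0.5% BSA, then stained with Alexa Fluor 488 anti-human IgG for 1 h at 4 °C. Cell-bound fluorescence was measured by flow cytometry, with all steps on ice.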

human Trop2 on cells [7] = biological target: T2, human Trop2 on cells; experiment: flow cytometry on BxPC-3 tumor cells
Protocol: BxPC-3 tumor cells (the Cell Bank of the Chinese Academy of Sciences, #TCHu 12) were digested with 3 mL of TrypLE, and the digestion was stopped with 7 mL of the corresponding medium. […] The cell solution was centrifuged, and the cells were washed once with PBS+[…] buffer. […] The cells were washed once with PBS+0.50% BSA. The cells were incubated at 4° C. for 1 h in the dark with 100 μL of Alexa Fluor 488 goat anti-human IgG (Life technologies, #A-11013) diluted at 1:1000, and washed twice with PBS+0.50% BSA. The cells were resuspended in 200 μL of PBS+0.50% BSA. The suspension was centrifuged at 4° C. for 5 min at 2000 rpm and tested using a FACS verse flow cytometer or NovoCyte flow cytometer (ACEA Biosciences). All procedures were performed on ice.

Inhibition rate (%) [1]: 99.2% | ADCP (Donor A1925144#) EC50(nM), BxPC-3 + macrophages (human Trop2 on cells [2]): 0.0362 nM | ADCP (Donor A1925144#) Maximum phagocytosis % (human Trop2 on cells [2]): 12% | ADCP (Donor A1925144#) Minimum phagocytosis % (human Trop2 on cells [2]): 0.861% | ADCP (Donor A19143143#) EC50(nM), BxPC-3 + macrophages (human Trop2 on cells [2]): 0.199 nM | ADCP (Donor A19143143#) Maximum phagocytosis % (human Trop2 on cells [2]): 36.4% | ADCP (Donor A19143143#) Minimum phagocytosis % (human Trop2 on cells [2]): 1.75% | Inhibition rate (%) [3]: 97.8% | KD (monkey)/KD (human) [4]: 0.81 | Inhibition rate (%) [5]: 101% | EC50 (human Trop2 on cells [6]): 0.23 nM | Maximum (MFI) (human Trop2 on cells [6]): 6510 MFI | Top % (human Trop2 on cells [6]): 101% | fold lower EC50 than the reference antibody hRS7 (human Trop2 on cells [6]): ~3 fold | EC50 (human Trop2 on cells [7]): 1.15 nM | Maximum MFI value (human Trop2 on cells [7]): 10800 MFI | fold lower EC50 than the reference antibody hRS7 (human Trop2 on cells [7]): ~2 fold
B1: PR001142 (antibody, human IgG1, kappa, V domains shown)
VH: QVQLQESGPGLVKPSGTLSLTCAVSGDSISSNNWWSWVRQPPGKGLEWIGEIYPGGNPNYNPSLKSRVTISVDKSKNQFSLKLNSVTAADTAVYYCARGSGVISYFDYWGQGTLVTVSS
VL: DIQMTQSPSTLSASVGDRVTITCRASQSIGHWLAWYQQKPGKAPKLLIYKASSLESGVPSRFRGSGSGTEFTLTISSLQPDDFATYYCQQYSSYSPITFGQGSRLEIKR
notes: fully human IgG1/kappa; also called antibody No. (9)
